Where no end group is shown, it is not given here.
B2: MAP7 microtubule-binding domain (MTBD), residues 59-170 (domain or fragment, human, UniProt Q14244 59-170, looked up)
chain: PVLRVDDRQRLARERREEREKQLAAREIVWLEREERARQHYEKHLEERKKRLEEQRQKEERRRAAVEEKRRQRLEEDKERHEAVVRRTMERSQKPKQKHNRWSWGGSLHGSP
notes: Uniformly [13C-15N] labelled in the NMR experiments; The deposited model PDB 8RC1 holds only a poly-alanine backbone of residues 63-151; also called MAP7 MTBD; MT-associated protein 7 MTBD; not shown: His-Tag, N-terminal, cleaved

How the values were obtained:
[1] = target: B2; assay: fluorescence polarisation; fluorescence anisotropy; 1 µM NHS-fluorescein-labelled α-CTT, MAP7 MTBD 200 to 0 µM, 384-well plate; 40 mM NaPi pH 6.5, 150 mM NaCl, 1 mM DTT; fit with DynaFit; details: both partners purified
[2] = target: T1, microtubules polymerised from porcine brain α/β-tubulin (porcine, UniProt P02550 1-451; P02554 1-445); assay: ITC; 150 µM MAP7 MTBD titrated in 2 µL steps to 164 µL of 15 µM Taxol-stabilized MT; 37 °C; NMR buffer (40 mM NaPi pH 6.5, 150 mM NaCl) with 1 mM β-ME and 1 mM GTP; duplicates; details: both partners purified
T1 construct: α-tubulin of porcine brain tubulin; β-tubulin of porcine brain tubulin; Polymer of α/β-tubulin heterodimers (13 or 14 protofilaments in cryo-EM); Brain tubulin is a mixture of isotypes; For ITC and NMR samples the methods say only 'lyophilized tubulin (Cytoskeleton)' without species; also called MTs; MT; source: bought: Cytoskeleton (porcine brain tubulin, Cat No. T240; lyophilized tubulin), …
T1 sequence (P02550 whole entry, chain 1 of 2): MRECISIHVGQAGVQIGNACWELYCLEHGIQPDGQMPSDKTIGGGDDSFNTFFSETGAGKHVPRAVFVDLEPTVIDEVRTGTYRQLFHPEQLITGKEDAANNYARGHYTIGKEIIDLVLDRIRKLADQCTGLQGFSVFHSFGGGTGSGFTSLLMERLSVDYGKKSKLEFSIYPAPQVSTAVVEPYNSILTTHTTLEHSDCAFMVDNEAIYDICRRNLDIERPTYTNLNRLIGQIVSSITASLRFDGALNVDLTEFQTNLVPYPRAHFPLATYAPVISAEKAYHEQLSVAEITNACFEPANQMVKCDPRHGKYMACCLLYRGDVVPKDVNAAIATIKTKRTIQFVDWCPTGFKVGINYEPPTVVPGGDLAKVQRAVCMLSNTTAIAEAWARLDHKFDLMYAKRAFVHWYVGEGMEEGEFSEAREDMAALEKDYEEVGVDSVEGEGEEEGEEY
T1 sequence (P02554 whole entry, chain 2 of 2): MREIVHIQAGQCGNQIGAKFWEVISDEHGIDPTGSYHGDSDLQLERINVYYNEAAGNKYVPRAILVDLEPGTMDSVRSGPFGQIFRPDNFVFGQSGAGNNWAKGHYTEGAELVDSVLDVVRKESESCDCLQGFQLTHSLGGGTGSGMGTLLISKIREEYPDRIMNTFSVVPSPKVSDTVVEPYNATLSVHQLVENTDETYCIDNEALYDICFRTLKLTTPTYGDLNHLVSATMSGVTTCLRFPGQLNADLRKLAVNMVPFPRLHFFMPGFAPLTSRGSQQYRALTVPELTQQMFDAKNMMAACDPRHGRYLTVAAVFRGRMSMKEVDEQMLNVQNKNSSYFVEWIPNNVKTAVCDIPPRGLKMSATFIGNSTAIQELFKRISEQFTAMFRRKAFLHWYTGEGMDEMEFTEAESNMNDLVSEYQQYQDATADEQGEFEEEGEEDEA

B1: NHS-fluorescein-labelled α-tubulin C-terminal tail peptide (peptide)
peptide: SVEGEGEEEGEEY
modifications: also: NHS-fluorescein attached, position not given here
notes: C-terminal tail of HeLa S3 α-tubulin, residues Ser 439-Tyr 451; also called fluorescein labelled α-CTT; NHS-fluorescein-labelled α-CTT; source: synthetic peptide, bought: Sigma-Aldrich; labelled with NHS-fluorescein and dialysed
Kd [1]: 91.3 µM

B2
Kd [2]: 0.94 µM | stoichiometry N [2]: 0.51 ± 0.09

— PMC10908866, “A structural and dynamic visualization of the interaction between MAP7 and microtubules” (Nature Communications, 2024)
